Results taken from the DeepSol protein solubility set.

assay: soluble on expression in E. coli; label from the status in PepcDB or PDB records

Sequence	soluble on expression in E. coli
MSLGKEEEYRITNVKIFKDTPVWELALAVKNEKTRTIEKLAKENPELLNYQEPKYGATLLLWAVGMEKYKSAEALLKCGADPNIASTVDGMTPLYLAAGFSWIDNYAKKDPKFVKLLLKYNADPNITYGGNAIIEPGTSPLMNSIRCGIEKTKALVEAGAYINYKTKSGTTAAIKALLAGQNATLEALEYAHYLIVEKKAKVTDPYYPWLVYEENNIQELYPVDILRRWVYPLDSEEYRIKMEIVEEFARQGVNYWDTEIDKYTLEQIKKLYPDTWEEYIKRYEGHHHHHH	soluble
RPAEEIIQGQIEVTEYRVSSKVPGRIKELRVSEGQQVQAGDTLAVIEAPDVAAKMEQAKAAEAAAQAQNAKALKGARSEQIQAAYEMWQKAQAGVAIATKTHQRVQNLYDQGVVPAQKLDEATAQRDAAIATQKAAEAQYNMARNGAEREDKLAASALVDRARGAVAEVESYINETYLIAPRAGEVSEIFPKAGELVGTGAPIMNIAEMGDMWASFAVRED	not soluble
MAIRIAINGFGRIGRSVLRALYESGRRAEISVVAINELASAEGMAHLLKYDSSHGRFAWDVRQECDSLYVGDDIIRLIHQSEIEQLPWSELGIDVVLDCSGVYGSREDGEAHVASGAKKVLFAHPGGHDLDATVVYGVNHQDLRAEHRIVSNASCTTNCIIPIIQLLDIAYGIESGTVTTIHSSMNDQPVIDAYHQDLRRTRAASQSIIPVDTKLAAGITRIFPKFCDRFEAISVRVPTINVTAIDLSVSVTHPVGVAEVNQLLQKAARGAFRGIVDYTELPLVSMDFNHDPHSAIVDGTQTRVSGQHLIKTLVWCDNEWGFANRMLDTTLAMAKSGF	not soluble
MIKIGVITMALLSFLNAGWFSLLFGSNPDPISIPIDLSQAGSVVEREVKIEETWAYDLFLEFAVLDRKEDGGLDGKKVRKFLGFNSYNPYDGKKLGFGDYEQAKRKLGDLIDETYDCDGTIAPIKLTIHQINKDNTKKLIVDNLYMTKGYSSGAYERDIAIISLDKGKYIFRIENIEAFQEMNARKVNFIIRIHKRDK	not soluble
MVQHSDEKGGAMTTLAIDIGGTKLAAALIGADGQIRDRRELPTPASQTPEALRDALSALVSPLQAHAQRVAIASTGIIRDGSLLALNPHNLGGLLHFPLVKTLGQLTDLPTIAINDAQAAAWAEYQALEGDITDMVFITVSTGVGGGVVSGGKLLTGPGGLAGHIGHTLADPHGPVCGCGRTGCVEAIASGRGIAAAAQGELAGADAKTIFMRAGQGDEQAQQLIHRSAHVLARLIADIKATTDCQCVVVGGSVGLAEGYLALVETYLAQEPAAFHVDLLAAHYRHDAGLLGAALLAQGEKL	soluble
MGSDKIHHHHHHMTLDSIERAIADIANGKPVVVVDSEDRENEGDLIFAADKATPELVAFMVRYSSGYICASLTSEECDRLQLPPMTSHNEDARGTAYAVTVDANTGTTGISATSRADTLRKLADSQFGPQDFTRPGHVVPLRAKAGGVLERAGHTEAAVDLARMAGLNPAGVLCEVVSEDDPTDMARAPELRRFADRHDLALISIEQLIEWRRRYELLVERAVSTQLPTEFGRFTAVGYRGIVDGVEHIALVAGDITSDEGKDVLLRVHSECLTGDVLGSRRCDCGPQLQASLRAISERGRGVVVYLRGHEGRGIGLLHKLQAYHLQDEGADTVDANKALGLPVDARNYSVAAHILRDLGVQSVCLLTNNPEKSLELERYGVKVTGREPVKVEVHEDNIRYLTTKRDRMNHDLPWIAEYKKEQS	not soluble
MGSDKIHHHHHHMEFLRNTWYAAGWSQDLAAGAMLGRTMLNEQLVLFRADDGTVSALSDICPHRFAPLHLGKIVDGCRIQCAYHALEFDGTGACVKNPHGKQKIPAAAKLQAYPVVEKHSLIWVWMGEQAAADPSVIPDFSMLDPDSGFQVSRRDWLHMDASYDLVVDNLMDLSHTAFLHDGILGSKYTIKADTSLEQTGETVKVTRLMPNVPVPGFFDLMFNRDGGIVDYWTEIRWNLPGCLMNNTGVTLPGAPRSEGTGVYGMHFLTPETDVSCWYHFAAVRQNPRTWGEPIDTEIKEKISDLRRYAFEEQDQWIIKAQQQTILRAKGNLQPVSLETDIGIERYKRILKAALVAERSGSTMAA	not soluble
MTARYIAIDWGSTNLRAWLYQGDKCLESRQSEAGVTRLNGKSPDAVLAEVTTHWRDSATPVVMAGMIGSNVGWQNAPYLPVPALFSAIGEQLTAVGDNIWIIPGLCVSREDNHNVMRGEETQLLGACELSPSSVYVMPGTHCKWVQTDTQQIHDFRTVMTGELHHLLLRHSLVGAGLPEQEVSGDAYAAGLERGLNSPAVLPSLFEVRASHVLGHLAREQVSDFLSGLLIGAEVASMSESFAAQQAITLVAGPALISRYQQAFSAIGRDVSTVDGDMAFQAGIRSIAHAVAN	not soluble
